These are literature values, as cited in paper PMC3433420.

Like-named read-outs stand apart in the source and are kept apart here.

Some targets named below: ITK (Homo sapiens) (UniProt Q08881); SLA2 (Homo sapiens) (UniProt Q9H6Q3); VAV2 (Homo sapiens) (UniProt P52735); VAV1 (Homo sapiens) (UniProt P15498); SRC (Homo sapiens) (UniProt P12931); ABL1 (Homo sapiens) (UniProt P00519); SHC2-PTB (Homo sapiens) (UniProt P98077); BTK (Homo sapiens) (UniProt Q06187); RASA1-N (Homo sapiens) (UniProt P20936); PLCG2-N (Homo sapiens) (UniProt P16885); SHD (Homo sapiens) (UniProt Q96IW2); TXK (Homo sapiens) (UniProt P42681); VAV3 (Homo sapiens) (UniProt Q9UKW4); PLCG1-C (Homo sapiens) (UniProt P19174); PIK3R1-C (Homo sapiens) (UniProt P27986); SH2D3C (Homo sapiens) (UniProt Q8N5H7); CRKL (Homo sapiens) (UniProt P46109); CRK (Homo sapiens) (UniProt P46108); PIK3R2-N (Homo sapiens) (UniProt O00459); ABL2 (Homo sapiens) (UniProt P42684).

Common to all, as to conditions: cited from earlier work
Data set [1] has as its target TENC1 (Homo sapiens) (UniProt Q63HR2).
The target in data set [2] is PIK3R3-NC (Homo sapiens) (UniProt Q92569).
Data set [3] deals with BLK (Homo sapiens) (UniProt P51451).
Chain of BLK (Homo sapiens) (P51451 119-225): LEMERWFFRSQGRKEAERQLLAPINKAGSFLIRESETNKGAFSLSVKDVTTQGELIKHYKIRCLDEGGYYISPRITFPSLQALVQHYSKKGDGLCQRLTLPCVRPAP
The target of data set [4] is SUPT6H (Homo sapiens) (UniProt Q7KZ85).
Chain of SUPT6H (Homo sapiens) (Q7KZ85 1320-1436): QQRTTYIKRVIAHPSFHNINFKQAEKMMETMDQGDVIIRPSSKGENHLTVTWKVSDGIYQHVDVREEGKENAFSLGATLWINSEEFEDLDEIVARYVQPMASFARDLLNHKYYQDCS
Data set [5] deals with PIK3R1-NC (Homo sapiens) (UniProt P27986).
Chain of PIK3R1-NC (Homo sapiens) (P27986 328-723): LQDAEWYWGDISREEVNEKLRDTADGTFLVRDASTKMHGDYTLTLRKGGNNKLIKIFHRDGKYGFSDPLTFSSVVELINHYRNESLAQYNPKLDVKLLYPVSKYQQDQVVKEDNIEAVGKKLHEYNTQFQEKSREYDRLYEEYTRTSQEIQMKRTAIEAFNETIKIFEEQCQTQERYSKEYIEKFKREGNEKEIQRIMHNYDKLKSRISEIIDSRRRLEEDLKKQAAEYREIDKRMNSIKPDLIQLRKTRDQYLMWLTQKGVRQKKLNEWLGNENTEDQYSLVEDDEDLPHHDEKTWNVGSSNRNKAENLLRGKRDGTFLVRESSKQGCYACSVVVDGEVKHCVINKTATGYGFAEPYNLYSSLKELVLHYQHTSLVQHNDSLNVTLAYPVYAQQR
Data set [6] concerns the target BLK (Homo sapiens) (UniProt P51451). This is another data set of the same source.
The target of data set [7] is TENC1 (Homo sapiens) (UniProt Q63HR2). This is another data set of the same source.
Chain of TENC1 (Homo sapiens) (Q63HR2 1135-1252): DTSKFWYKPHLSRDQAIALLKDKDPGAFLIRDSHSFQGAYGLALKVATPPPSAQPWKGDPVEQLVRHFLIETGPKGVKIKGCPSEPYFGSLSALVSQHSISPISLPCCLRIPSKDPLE
Data set [8] concerns the target SUPT6H (Homo sapiens) (UniProt Q7KZ85). The source holds these as a separate data set.
The target of data set [9] is PIK3R3-NC (Homo sapiens) (UniProt Q92569). The source holds these as a separate data set.
Data set [10] has as its target PIK3R1-NC (Homo sapiens) (UniProt P27986). The source holds these as a separate data set.
The target in data set [11] is BLK (Homo sapiens) (UniProt P51451). This is another data set of the same source.

Chain of SH2D3C (Homo sapiens) (Q8N5H7 215-324): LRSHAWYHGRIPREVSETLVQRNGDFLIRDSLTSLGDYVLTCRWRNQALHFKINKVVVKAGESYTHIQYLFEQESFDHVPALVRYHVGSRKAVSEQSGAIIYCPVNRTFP
Chain of CRK (Homo sapiens) (P46108 8-123): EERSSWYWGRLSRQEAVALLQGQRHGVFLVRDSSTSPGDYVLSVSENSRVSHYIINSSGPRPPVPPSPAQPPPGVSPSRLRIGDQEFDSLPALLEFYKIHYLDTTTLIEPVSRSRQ
Chain of VAV2 (Homo sapiens) (P52735 668-772): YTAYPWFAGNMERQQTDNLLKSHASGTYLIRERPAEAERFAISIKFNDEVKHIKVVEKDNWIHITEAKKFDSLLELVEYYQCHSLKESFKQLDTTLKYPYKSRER
Chain of BTK (Homo sapiens) (Q06187 276-382): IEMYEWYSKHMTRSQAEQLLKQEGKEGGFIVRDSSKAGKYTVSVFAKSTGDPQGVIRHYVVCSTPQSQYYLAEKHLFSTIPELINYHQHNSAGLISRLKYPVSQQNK
Chain of PLCG1-C (Homo sapiens) (P19174 545-761): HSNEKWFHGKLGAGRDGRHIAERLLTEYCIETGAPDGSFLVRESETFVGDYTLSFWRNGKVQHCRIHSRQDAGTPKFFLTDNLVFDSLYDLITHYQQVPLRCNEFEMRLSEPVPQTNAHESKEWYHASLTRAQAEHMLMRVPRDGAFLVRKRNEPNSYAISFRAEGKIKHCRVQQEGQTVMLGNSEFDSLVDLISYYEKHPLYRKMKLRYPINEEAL
Chain of CRKL (Homo sapiens) (P46109 9-107): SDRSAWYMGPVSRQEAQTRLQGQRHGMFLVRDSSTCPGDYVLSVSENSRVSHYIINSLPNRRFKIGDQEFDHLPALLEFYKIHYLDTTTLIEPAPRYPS
Chain of PIK3R1-C (Homo sapiens) (P27986 328-723): as the sequence (P27986 328-723) above
Chain of PIK3R2-N (Homo sapiens) (O00459 325-721): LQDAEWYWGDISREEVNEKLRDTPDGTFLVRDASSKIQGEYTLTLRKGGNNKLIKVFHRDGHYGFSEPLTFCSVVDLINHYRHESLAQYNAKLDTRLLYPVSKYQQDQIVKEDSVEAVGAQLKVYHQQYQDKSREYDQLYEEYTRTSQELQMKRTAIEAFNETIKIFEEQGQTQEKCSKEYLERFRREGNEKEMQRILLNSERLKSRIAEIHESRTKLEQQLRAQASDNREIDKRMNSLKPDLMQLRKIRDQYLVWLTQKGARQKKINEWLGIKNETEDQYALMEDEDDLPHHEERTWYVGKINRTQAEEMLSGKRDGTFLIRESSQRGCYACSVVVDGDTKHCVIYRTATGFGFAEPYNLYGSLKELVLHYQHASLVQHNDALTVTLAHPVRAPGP
Chain of SHD (Homo sapiens) (Q96IW2 235-340): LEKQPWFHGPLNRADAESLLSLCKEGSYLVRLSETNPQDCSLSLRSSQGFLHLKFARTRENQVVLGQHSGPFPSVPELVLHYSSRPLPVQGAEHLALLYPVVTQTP
Chain of ABL2 (Homo sapiens) (P42684 168-268): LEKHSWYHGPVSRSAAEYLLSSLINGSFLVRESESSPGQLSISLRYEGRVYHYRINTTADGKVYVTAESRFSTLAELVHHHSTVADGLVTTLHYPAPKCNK
Chain of ABL1 (Homo sapiens) (P00519 122-222): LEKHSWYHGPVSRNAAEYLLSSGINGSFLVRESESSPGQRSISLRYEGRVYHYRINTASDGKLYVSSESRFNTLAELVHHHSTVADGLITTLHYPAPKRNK
Chain of SHC2-PTB (Homo sapiens) (P98077 482-582): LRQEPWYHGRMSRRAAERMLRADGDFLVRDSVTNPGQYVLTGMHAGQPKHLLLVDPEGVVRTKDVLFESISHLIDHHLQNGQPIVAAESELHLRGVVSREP
Chain of ITK (Homo sapiens) (Q08881 234-343): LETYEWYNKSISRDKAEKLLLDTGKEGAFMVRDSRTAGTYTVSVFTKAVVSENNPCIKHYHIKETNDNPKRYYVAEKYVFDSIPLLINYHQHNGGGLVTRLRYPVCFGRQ
Chain of VAV3 (Homo sapiens) (Q9UKW4 667-771): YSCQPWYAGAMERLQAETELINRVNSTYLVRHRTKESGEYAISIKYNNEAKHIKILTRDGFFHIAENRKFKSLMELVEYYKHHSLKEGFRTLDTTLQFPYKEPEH
Chain of PLCG2-N (Homo sapiens) (P16885 527-740): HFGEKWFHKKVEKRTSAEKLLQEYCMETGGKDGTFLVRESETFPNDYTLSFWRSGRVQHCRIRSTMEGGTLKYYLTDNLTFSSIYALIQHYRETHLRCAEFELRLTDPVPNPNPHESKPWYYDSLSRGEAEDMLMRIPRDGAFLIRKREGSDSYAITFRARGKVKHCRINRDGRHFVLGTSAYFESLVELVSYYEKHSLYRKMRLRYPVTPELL
Chain of SLA2 (Homo sapiens) (Q9H6Q3 89-196): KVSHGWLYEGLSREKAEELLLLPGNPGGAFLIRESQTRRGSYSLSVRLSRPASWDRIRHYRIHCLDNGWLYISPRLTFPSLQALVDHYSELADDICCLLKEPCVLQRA
Chain of TXK (Homo sapiens) (P42681 145-251): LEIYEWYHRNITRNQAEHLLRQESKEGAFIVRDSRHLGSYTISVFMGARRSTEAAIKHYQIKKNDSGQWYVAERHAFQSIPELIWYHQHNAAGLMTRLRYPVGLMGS
Chain of RASA1-N (Homo sapiens) (P20936 176-446): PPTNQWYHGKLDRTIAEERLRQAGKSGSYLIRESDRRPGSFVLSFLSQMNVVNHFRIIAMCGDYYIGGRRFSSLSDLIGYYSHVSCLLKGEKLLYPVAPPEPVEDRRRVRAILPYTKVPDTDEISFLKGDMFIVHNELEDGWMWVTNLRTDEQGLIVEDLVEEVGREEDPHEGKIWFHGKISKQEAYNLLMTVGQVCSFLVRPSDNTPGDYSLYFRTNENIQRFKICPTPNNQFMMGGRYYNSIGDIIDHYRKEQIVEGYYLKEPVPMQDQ
Chain of VAV1 (Homo sapiens) (P15498 666-770): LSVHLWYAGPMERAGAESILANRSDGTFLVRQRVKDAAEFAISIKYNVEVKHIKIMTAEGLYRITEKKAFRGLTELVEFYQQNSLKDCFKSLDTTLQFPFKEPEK

Consider …pYEEMRAFQ, for which the apparent Kd (screen) was 2 µM with TENC1 (Homo sapiens) [1]; 0.01 µM with PIK3R3-NC (Homo sapiens) [2]; 0.499 µM with ITK (Homo sapiens); 2 µM in the data set with SLA2 (Homo sapiens); 2 µM in the data set with VAV2 (Homo sapiens).
Consider …pYWDQDPPE, for which the apparent Kd (screen) with BLK (Homo sapiens) [3] is 2 µM; in the data set with VAV1 (Homo sapiens) it was 2 µM; with SUPT6H (Homo sapiens) [4], 2 µM; with PIK3R1-NC (Homo sapiens) [5] it was 1.84 µM; with SRC (Homo sapiens) it was 2 µM; with ABL1 (Homo sapiens) it was 1.84 µM. Moreover, the apparent Kd (screen) in the data set with SHC2-PTB (Homo sapiens) is 0.457 µM; with BTK (Homo sapiens) it was 2 µM; with RASA1-N (Homo sapiens), 0.504 µM; with PLCG2-N (Homo sapiens), 0.601 µM; with SHD (Homo sapiens) it was 2 µM; in the data set with TXK (Homo sapiens), 2 µM. Also, the values for the apparent Kd (screen) with VAV3 (Homo sapiens), in the data set with BLK (Homo sapiens) [6] and with TENC1 (Homo sapiens) [7] were 1.12 µM, 0.052 µM and 0.843 µM, respectively.
As to …pYLVPQQGF, the apparent Kd (screen) with SUPT6H (Homo sapiens) [8] was 0.912 µM; with PIK3R3-NC (Homo sapiens) [9], 0.527 µM; with PIK3R1-NC (Homo sapiens) [10] it was 1.64 µM; with PLCG1-C (Homo sapiens) it was 1.46 µM; with PIK3R1-C (Homo sapiens), 2 µM.
With …pYLIPQQGFd, the apparent Kd (screen) in the data set with SH2D3C (Homo sapiens) is 2 µM; in the data set with CRKL (Homo sapiens), 0.998 µM; with CRK (Homo sapiens), 0.47 µM; with PIK3R2-N (Homo sapiens), 0.425 µM; in the data set with BLK (Homo sapiens) [11], 0.658 µM; with ABL2 (Homo sapiens), 0.282 µM.
